In paper PMC2364200:

Target: vitronectin (UniProt P04004)
Chain of UniProt P04004 (P04004 20-478): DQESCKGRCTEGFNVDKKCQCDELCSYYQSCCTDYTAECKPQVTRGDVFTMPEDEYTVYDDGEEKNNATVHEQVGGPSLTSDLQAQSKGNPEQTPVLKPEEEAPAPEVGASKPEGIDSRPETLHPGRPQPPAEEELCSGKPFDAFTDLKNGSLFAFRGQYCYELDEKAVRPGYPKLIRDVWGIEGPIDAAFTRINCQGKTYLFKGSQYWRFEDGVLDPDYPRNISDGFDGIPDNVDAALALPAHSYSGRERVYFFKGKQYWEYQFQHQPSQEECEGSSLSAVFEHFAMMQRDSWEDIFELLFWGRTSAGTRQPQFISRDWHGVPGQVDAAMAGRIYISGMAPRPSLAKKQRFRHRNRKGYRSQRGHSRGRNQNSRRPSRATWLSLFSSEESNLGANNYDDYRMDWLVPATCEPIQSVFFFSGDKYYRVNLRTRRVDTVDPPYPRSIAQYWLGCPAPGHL

Row | adhesion of V3B3S11aa cells on vitronectin (C1 null transfectant cells without avb3: 6.52%) [%] | haptotactic migration of V3B3S11aa cells towards vitronectin (C1 cells: 2.01%) [%] | haptotactic migration of V3B3S11aa cells towards vitronectin in the presence of LM609 [%] | inhibition of adhesion of V3B3S11aa cells to vitronectin by LM609 (anti-avb3 blocking antibody) [%] | adhesion of V3B3 cells on vitronectin (C1 null transfectant cells without avb3: 6.52%) [%] | haptotactic migration of V3B3 cells towards vitronectin (C1 cells: 2.01%) [%] | haptotactic migration of V3B3 cells towards vitronectin in the presence of LM609 [%] | inhibition of adhesion of V3B3 cells to vitronectin by LM609 (anti-avb3 blocking antibody) [%] | Substance
1 | 39.5 | 21.8 | 0 | 26 | – | – | – | – | avb3 integrin heterodimer with the b3 chimaeric mutant whose cytoplasmic domain is extended by the C-terminal 11 amino acids of b6 (on V3B3S11aa squamous cell carcinoma cells) (from UniProt P06756 31-1048; P05106 27-788; P18564 778-788) (receptor)
2 | – | – | – | – | 38.6 | 20.3 | 3.92 | 30.6 | avb3 integrin heterodimer, wild type b3 (on V3B3 squamous cell carcinoma cells) (from UniProt P06756 31-1048; P05106 27-788) (receptor)
